Measured values taken from patent US7332279B2 (Glycozym APS, priority 1999, dated 2008).

B1: Hen egg albumin: glycoprotein acceptor substrate (protein, UniProt P01012 2-386, looked up)
Ovalbumin: GSIGAASMEFCFDVFKELKVHHANENIFYCPIAIMSALAMVYLGAKDSTRTQINKVVRFDKLPGFGDSIEAQCGTSVNVHSSLRDILNQITKPNDVYSFSLASRLYAEERYPILPEYLQCVKELYRGGLEPINFQTAADQARELINSWVESQTNGIIRNVLQPSSVDSQTAMVLVNAIVFKGLWEKAFKDEDTQAMPFRVTEQESKPVQMMYQIGLFRVASMASEKMKILELPFASGTMSMLVLLPDEVSGLEQLESIINFEKLTEWTSSNVMEERKIKVYLPRMKMEEKYNLTSVLMAMGITDVFSSSANLSGISSAESLKISQAVHAAHAEINEAGREVVGSAEAGVDAASVSEEFRADHPFLFCIKHIATNAVLFFGRCVSP

Columns and labels:
[1] = target: T1, β3Gal-T1 (Homo sapiens, UniProt Q9Y5Z6); test: Galactosyltransferase assay with glycoprotein acceptors, β3Gal-T1; assay type: biochemical; conditions: for β3Gal-T1 activity with glycoprotein acceptor: 0.5 mg glycoprotein, 150 μM UDP-Gal
T1 construct: The kinetic properties were determined with partially purified, secreted forms of the enzymes; made in house; host or cells: baculovirus; Sf9 / High Five insect cells, medium
T1 sequence (Q9Y5Z6 27-326 limits assumed): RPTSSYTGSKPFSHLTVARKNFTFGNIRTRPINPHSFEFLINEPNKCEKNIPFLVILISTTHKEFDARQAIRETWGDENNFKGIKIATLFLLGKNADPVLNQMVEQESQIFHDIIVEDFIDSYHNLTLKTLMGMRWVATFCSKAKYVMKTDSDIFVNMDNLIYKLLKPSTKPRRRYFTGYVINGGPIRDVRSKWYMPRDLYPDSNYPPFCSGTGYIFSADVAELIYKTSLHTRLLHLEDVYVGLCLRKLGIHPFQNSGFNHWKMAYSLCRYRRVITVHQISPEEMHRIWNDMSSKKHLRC
Experimental: (§1) The kinetic properties were determined with partially purified, secreted forms of the enzymes. Semipurification of enzymes from serum-free medium of infected High-Five™ cells was performed by sequential Amberlite, DEAE-Sephacel and 5-Sepharose chromatography as described previously (Wandall, H. H., Hassan, H., Mirgorodskaya, E., et al. Substrate specificities of three. members of the human UDP-N-acetyl-alpha-D-galactosamine:Polypeptide Nacetylgalactosaminyltransferase family, GalNAc-T1, -T2, and -T3. J. Biol. Chem. 272:23503-23514, 1997). Comparisons of enzymes were performed relatively to the activity obtained with βGlcNAc-Bz1 (Tables II and III). Full length enzymes were assayed with 1% Triton CF54 homogenates of washed cells. Enzyme assays were performed in 50 μl total reaction mixtures containing 25 mM Cacodylate (pH 7.5), 10 mM MnCl2, 0.25% Triton X-100, 100 μM UDP-[^14C]-Gal (2,600 cpm/nmol) (Amersham), and varying concentrations of acceptor substrates (Sigma) (see Table I for structures). Reaction products were quantified by Dowex-1 chromatography. […] The transfer of Gal was evaluated after acid precipitation by filtration through Whatman GF/C glass fibre filters. […] Assays with glycolipid acceptors were conducted as previously described (Holmes, E. H. Characterization and membrane organization of beta 1-3- and beta 1-4-galactosyltransferases from human colonic adenocarcinoma cell lines Cob 205 and SW403: basis for preferential synthesis of type 1 chain lacto-series carbohydrate structures. Arch Biochem Biophys 270:630-646, 1989) in reaction mixtures containing 2.5 μmol HEPES buffer, pH 7.2, μmol MnCl2, 100 μg taurodeoxycholate or Triton CF-54, 20 μg acceptor glycolipid, 15 nmol UDP-[^14C]-galactose (13,000 cpm/nmol) and enzyme in a total volume of 100 μl. Conditions for incubation and product isolation were as previously described (Id.).

[2] = target: T2, β3Gal-T5 (Homo sapiens, UniProt Q9Y2C3, M85T); test: Galactosyltransferase assay with glycoprotein acceptors, β3Gal-T5; assay type: biochemical; conditions: for β3Gal-T5 activity with glycoprotein acceptor: 0.5 mg glycoprotein, 150 μM UDP-Gal
T2 construct: designed to exclude the hydrophobic transmembrane segment and to encode amino acid residues 25-310; secretion signal of vector pAcGP67B (gp67); made in house; host or cells: baculovirus; Sf9 cells (media) and High Five cells (serum-free medium, partially purified)
T2 sequence (Q9Y2C3 25-310 M85T): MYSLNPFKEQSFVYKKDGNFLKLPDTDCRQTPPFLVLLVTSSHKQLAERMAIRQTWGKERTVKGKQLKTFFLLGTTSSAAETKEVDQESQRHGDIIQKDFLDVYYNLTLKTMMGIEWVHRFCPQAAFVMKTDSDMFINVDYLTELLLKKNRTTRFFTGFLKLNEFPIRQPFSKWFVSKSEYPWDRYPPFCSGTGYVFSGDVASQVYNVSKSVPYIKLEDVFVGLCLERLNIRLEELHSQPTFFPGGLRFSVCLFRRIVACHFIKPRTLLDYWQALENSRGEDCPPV
Experimental: as §1

[3] = target: T3, β3Gal-T2 (Homo sapiens, UniProt O43825); test: Galactosyltransferase assay with glycoprotein acceptors, β3Gal-T2; assay type: biochemical; conditions: for β3Gal-T2 activity with glycoprotein acceptor: 0.5 mg glycoprotein, 150 μM UDP-Gal
T3 construct: The kinetic properties were determined with partially purified, secreted forms of the enzymes; made in house; host or cells: baculovirus; Sf9 / High Five insect cells, medium
T3 sequence (O43825 46-422 limits assumed): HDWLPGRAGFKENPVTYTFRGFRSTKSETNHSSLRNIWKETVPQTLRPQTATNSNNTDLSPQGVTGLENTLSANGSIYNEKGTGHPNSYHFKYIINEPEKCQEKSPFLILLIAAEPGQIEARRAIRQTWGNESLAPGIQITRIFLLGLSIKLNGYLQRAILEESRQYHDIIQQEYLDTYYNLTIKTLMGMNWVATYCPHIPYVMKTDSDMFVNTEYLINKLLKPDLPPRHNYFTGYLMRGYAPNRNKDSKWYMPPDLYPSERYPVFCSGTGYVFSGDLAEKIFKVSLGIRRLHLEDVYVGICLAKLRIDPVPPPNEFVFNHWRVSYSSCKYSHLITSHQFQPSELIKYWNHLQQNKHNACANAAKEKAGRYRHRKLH
Experimental: as §1

[4] = test system: human colonic β3Gal-transferase activity; conditions: acceptor substrate; read-out: apparent Km, human colonic β3Gal-T activity; cited from earlier work
[5] = test system: β3Gal-T activity from Colo205 cells; conditions: acceptor substrate; cited from earlier work
[6] = target: T2, β3Gal-T5; test: Galactosyltransferase assay with glycolipid acceptors, β3Gal-T5; assay type: biochemical
Experimental: as §1

Row | Molecule | β3Gal-T1 ratio glycoprotein / β-D-GlcNAc-Bzl [1] | β3Gal-T1 activity with glycoprotein acceptor [1] [mmol/min] | β3Gal-T5 ratio glycoprotein / β-D-GlcNAc-Bzl [2] | β3Gal-T5 activity with glycoprotein acceptor [2] [mmol/min] | β3Gal-T2 ratio glycoprotein / β-D-GlcNAc-Bzl [3] | β3Gal-T2 activity with glycoprotein acceptor [3] [mmol/min] | Km [4] [µM] | Km [5] [µM] | β3Gal-T5 activity with glycolipid acceptor, Triton CF-54 ([6]; 100 μg Triton CF-54/100 μl, 20 μg glycolipid) [µmol/h/mg] | β3Gal-T5 activity with glycolipid acceptor, TDOC ([6]; 100 μg taurodeoxycholate/100 μl, 20 μg glycolipid) [µmol/h/mg] | Km ([6]; in the presence taurodeoxycholate, based on data points at low concentrations (substrate inhibition), read-out: apparent Km of β3Gal-T5) [µM]
1 | Bovine submaxillary mucin | (0.0) | 0.0 | (0.4) | 0.04 | (0.0) | 0.0 | – | – | – | – | –
2 | Orosomucoid: glycoprotein acceptor substrate | (0.0) | 0.0 | (0.0) | 0.0 | (0.0) | 0.0 | – | – | – | – | –
3 | Asialo-agalacto-fetuin: glycoprotein acceptor substrate | (0.3) | 0.01 | (0.0) | 0.0 | (1.8) | 0.07 | – | – | – | – | –
4 | CC(=O)N[C@H]1[C@H](O[C@H]2[C@@H](O)[C@@H](CO)O[C@@H](O[C@H]3[C@H](O)[C@@H](O)C(O)O[C@@H]3CO)[C@@H]2O)O[C@H](CO)[C@@H](O)[C@@H]1O (stereo partly drawn) [β-D-GlcNAc(1-3)-D-β-Gal(1-4)-D-β-Glc] | – | – | – | – | – | – | 2900 | – | – | – | –
5 | GlcNAcβ1-3Galβ1-4Glcβ1-Cer [Lc3] | – | – | – | – | – | – | – | 13 | 3.6 | 4.4 | ~2
6 | B1 | (0.0) | 0.0 | (0.0) | 0.0 | (0.5) | 0.02 | – | – | – | – | –
